We go through one molecule from patent US20240327509A1, “HUMAN CXCLI6 ANTIBODIES AND THE USE THEREOF” (CELLUS,INC., priority 2021, published 2024).

The experiment has as its target T1, Recombinant human CXCL16 (rhCXCL16) protein (Homo sapiens, UniProt Q9H2A7).
T1 sequence (Q9H2A7 30-118): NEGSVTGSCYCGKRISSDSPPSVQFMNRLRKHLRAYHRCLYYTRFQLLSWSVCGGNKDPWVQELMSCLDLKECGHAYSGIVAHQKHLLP
Put plainly: bio-light interferometry (ForteBio) binding analysis. The conditions noted are these: antibody captured on biosensor, rhCXCL16 100 nM, 25° C.; ND = signal was not detectable. As to the method: The binding characteristics of 25 CXCL16 antibodies were analyzed using the bio-light interferometry (ForteBio). All antibodies were diluted in freshly prepared running buffer. Antibodies were immobilized onto the surface of a series of biosensors using the capture methods at 0.3 μg/mL. Recombinant human CXCL16 (rhCXCL16) protein (100 nM) was passed over the surface to generate a binding response for 10 minutes. Binding data for the antibody and antigen interactions were collected at 25° C. on the biosensors. Then, the running buffer was passed for 10 minutes to dissociate them. The association constant (ka) and the dissociation constant (ka) were observed, and the equilibrium binding constant (KD) was calculated. […] R2: The value indicating how well the fit and experimental data correlate; X^2: The measure of error between the experimental data and fitted line.

B1: HC0LC0: chimeric antibody that binds to human CXCL16; rat variable regions (CDRs SEQ ID NOs 12-17), heavy SEQ ID NO: 32, light SEQ ID NO: 34 (antibody)
heavy: ACCMGWTLVFLFLLSVTAGVHSAVQLVESGGGLVQPKESLKISCAASGFTFSNAVMNWVRQAPGKGLEWVARIRTKPNNYATFYADSVKGRFTFSRDDSKSMVYLQMDNLKTEDTAMYYCTAWTTEGIYWGQGTLVTVSSAETTAPSVYPLAPGTALKSNSMVTLGCLVKGYFPEPVTVTWNSGALSSGVHTFPAVLQSGLYTLTSSVTVPSSTWSSQAVTCNVAHPASSTKVDKKIVPRECNPCGCTGSEVSSVFIFPPKTKDVLTITLTPKVTCVVVDISQNDPEVRFSWFIDDVEVHTAQTHAPEKQSNSTLRSVSELPIVHRDWLNGKTFKCKVNSGAFPAPIEKSISKPEGTPRGPQVYTMAPPKEEMTQSQVSITCMVKGFYPPDIYTEWKMNGQPQENYKNTPPTMDTDGSYFLYSKLNVKKETWQQGNTFTCSVLHEGLHNHHTEKSLSHSPGK
light: ACCMVSSAQFLGLLLLCFQGTRCDIVMTQSPSSLAVSAGETVTINCKSSQSLLYSGNQKNYLAWYQQKPGQSPKLLIYWASTRQSGVPDRFIGSGSGTDFTLTISSVQAEDLAIYYCQQYYDTPWTFGGGTKLELKRADAAPTVSIFPPSTEQLATGGASVVCLMNNFYPRDISVKWKIDGTERRDGVLDSVTDQDSKDSTYSMSSTLSLTKADYESHNLYTCEVVHKTSSSPVVKSFNRNEC
As to B1, the kd is less than 1e-07 s⁻¹.
